Assay results taken from patent US20260130997A1 (BEAM THERAPEUTICS, published 2026).

Assays:
Test in all cases: binding to mutant CD45 D1-D2 protein relative to WT CD45 D1-D2; method not given
[1] = target: T1, mutant CD45 D1-D2 protein N286G (Homo sapiens, UniProt P08575 225-394, limits assumed)
T1 chain: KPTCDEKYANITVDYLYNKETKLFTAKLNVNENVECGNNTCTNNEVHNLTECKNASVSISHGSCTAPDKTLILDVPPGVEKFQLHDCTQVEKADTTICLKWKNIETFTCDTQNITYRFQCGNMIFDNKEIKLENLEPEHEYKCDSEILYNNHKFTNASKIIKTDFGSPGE

[2] = target: T2, mutant CD45 D1-D2 protein N257G (Homo sapiens, UniProt P08575 225-394, limits assumed)
T2 chain: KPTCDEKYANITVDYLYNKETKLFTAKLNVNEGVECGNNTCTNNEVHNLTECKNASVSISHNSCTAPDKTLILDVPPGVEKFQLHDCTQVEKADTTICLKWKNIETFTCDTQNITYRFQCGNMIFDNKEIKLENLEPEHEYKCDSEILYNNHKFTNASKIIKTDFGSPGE

[3] = target: T3, mutant CD45 D1-D2 protein E259G, N262D (Homo sapiens, UniProt P08575 225-394, limits assumed)
T3 chain: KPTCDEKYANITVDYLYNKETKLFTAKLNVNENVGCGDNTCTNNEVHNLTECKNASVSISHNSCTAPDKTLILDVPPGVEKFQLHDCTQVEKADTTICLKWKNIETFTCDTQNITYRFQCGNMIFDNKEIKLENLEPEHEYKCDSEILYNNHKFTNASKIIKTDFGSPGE

[4] = target: T4, mutant CD45 D1-D2 protein N263S, T264A, T266A (Homo sapiens, UniProt P08575 225-394, limits assumed)
T4 chain: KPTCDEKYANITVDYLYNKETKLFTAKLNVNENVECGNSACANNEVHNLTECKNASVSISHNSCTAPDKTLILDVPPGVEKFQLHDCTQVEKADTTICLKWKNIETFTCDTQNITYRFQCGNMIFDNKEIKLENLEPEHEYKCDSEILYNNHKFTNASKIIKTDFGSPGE

[5] = target: T5, mutant CD45 D1-D2 protein I283M (Homo sapiens, UniProt P08575 225-394, limits assumed)
T5 chain: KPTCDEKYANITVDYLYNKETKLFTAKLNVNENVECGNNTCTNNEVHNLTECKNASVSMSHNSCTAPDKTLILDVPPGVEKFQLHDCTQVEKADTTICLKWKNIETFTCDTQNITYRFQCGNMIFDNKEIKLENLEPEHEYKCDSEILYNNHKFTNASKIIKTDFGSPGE

[6] = target: T6, mutant CD45 D1-D2 protein T266A (Homo sapiens, UniProt P08575 225-394, limits assumed)
T6 chain: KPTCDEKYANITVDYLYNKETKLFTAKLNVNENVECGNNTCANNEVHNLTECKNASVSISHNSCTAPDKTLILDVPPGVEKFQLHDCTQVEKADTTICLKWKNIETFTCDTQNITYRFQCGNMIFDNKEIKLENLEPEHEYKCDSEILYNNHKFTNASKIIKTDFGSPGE

[7] = target: T7, mutant CD45 D1-D2 protein I283M, H285R, N286G (Homo sapiens, UniProt P08575 225-394, limits assumed)
T7 chain: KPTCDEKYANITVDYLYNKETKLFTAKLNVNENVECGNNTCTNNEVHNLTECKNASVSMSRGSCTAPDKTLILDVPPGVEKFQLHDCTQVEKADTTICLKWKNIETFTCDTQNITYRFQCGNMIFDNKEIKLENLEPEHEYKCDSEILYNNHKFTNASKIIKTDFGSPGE

[8] = target: T8, mutant CD45 D1-D2 protein N253G, N255G (Homo sapiens, UniProt P08575 225-394, limits assumed)
T8 chain: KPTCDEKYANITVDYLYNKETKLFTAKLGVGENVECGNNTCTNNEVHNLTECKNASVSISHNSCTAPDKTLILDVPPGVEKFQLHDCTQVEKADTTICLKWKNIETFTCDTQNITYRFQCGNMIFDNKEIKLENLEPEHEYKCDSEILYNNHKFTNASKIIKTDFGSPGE

[9] = target: T9, mutant CD45 D1-D2 protein N267G, N268G (Homo sapiens, UniProt P08575 225-394, limits assumed)
T9 chain: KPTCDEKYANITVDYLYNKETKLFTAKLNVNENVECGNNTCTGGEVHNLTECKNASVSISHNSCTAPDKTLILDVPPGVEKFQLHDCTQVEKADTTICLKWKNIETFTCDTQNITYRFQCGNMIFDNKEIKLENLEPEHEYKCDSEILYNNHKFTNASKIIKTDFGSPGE

[10] = target: T10, mutant CD45 D1-D2 protein E259G (Homo sapiens, UniProt P08575 225-394, limits assumed)
T10 chain: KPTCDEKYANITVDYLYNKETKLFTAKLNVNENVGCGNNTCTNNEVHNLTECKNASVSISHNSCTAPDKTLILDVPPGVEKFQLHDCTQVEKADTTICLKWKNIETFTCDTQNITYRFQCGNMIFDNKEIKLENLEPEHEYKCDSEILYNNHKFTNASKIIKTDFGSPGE

% Mutant Binding [1]: 81.5%
% Mutant Binding [2]: 1.7%
% Mutant Binding [3]: 2.3%
% Mutant Binding [4]: 69.3%
% Mutant Binding [5]: 12.9%
% Mutant Binding [6]: 73.4%
% Mutant Binding [7]: 0.7%
% Mutant Binding [8]: 44.9%
% Mutant Binding [9]: 1.3%
% Mutant Binding [10]: 2.7%
B1: mAb U139AGL030-9 (mAb030-9) (antibody, mouse IgG1, kappa, V domains shown)
VH: EVKLLESGGGLVQPGGSLKLSCAASGFDFSRYWMSWVRQAPGKGLEWIGEINPTSSTINFTPSLKDKVFISRDNAKNTLYLQMSKVRSEDTALYYCARGNYYRYGDAMDYWGQGTSVTVSS
VL: DIALTQSPASLAVSLGQRATISCRASKSVSTSGYSYLHWYQQKPGQPPKLLIYLASNLESGVPARFSGSGSGTDFTLNIHPVEEEDAATYYCQHSRELPFTFGSGTKLEIKR
notes: In the biosensor assay the antibody was captured with Anti-Human IgG Fc Capture (AHC); also called mAb30-9; mAb039-9
